Measured values published in US20220177552A1 (CELLTRION, published 2022).
Changes are numbered by the printed parent chain.

B1: Antibody 1 (fully human antibody) (antibody, V domains shown)
VH: QVQLVQSGAEVKKPGSSVKVSCKASGGTFSSYVISWVRQAPGQGLEWVGRIIPIFGTVKYAQKFQGRVTITADKSTSTAYMELSSLRSEDTAVYYCARDLPGDSRDGYNYDAFDIWGQGTLVTVSL
VL: GELELTQPPSVSAAPGQKVTISCSGSSSNIGNNYVSWYQQLPGTAPKLLIYDNNKRPSGIPDRFSGSKSGTSATLGITGLQTGDEADYYCGTWDSSLNAGVFGGGTELTVLG
B2: Antibody 2 (fully human antibody) (antibody, V domains shown)
VH: B1 VH with Q1E, V33A, V48M, T57I, V58A, L121M, L126S
VL: GELVLTQPPSVSAAPGQKVTISCSGSSSNIGNNFVSWYQQLPGTAPKLLIYDNDKRPSGIPDRFSGSKSGTSATLGITGLQTGDEADYYCATWDRSLSVELFGGGTKVTVLG
B3: Antibody 3 (fully human antibody) (antibody, V domains shown)
VH: QVQLQESGPGLVKPSETLSLTCTVSGGSINSRSYYWGWIRQPPGKGLEWIGSIYYSGSTYYNPSLKSRVTISVDTSKNQFSLKLRSVTAADTAVYYCARADREHVWGSYDGPGSPFDYWGQGTLVTVSS
VL: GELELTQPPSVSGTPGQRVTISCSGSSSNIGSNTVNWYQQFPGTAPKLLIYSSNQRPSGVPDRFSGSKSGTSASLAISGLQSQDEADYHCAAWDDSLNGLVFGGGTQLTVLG
B4: Antibody 4 (fully human antibody) (antibody, V domains shown)
VH: B3 VH with H104Y
VL: GELVLTQPPSVSEAPRQRVTISCSGSSSNIGNNAVNWYLQVPGTAPKLLIYGDHQRPSGVPDRFSGSKSGTSASLSISGLQSEDEADYYCAAWDDSLNGVVFGGGTKLTVLG
B5: Antibody 5 (fully human antibody) (antibody, V domains shown)
VH: EVQLVQSGAEVKKPGSSVKVSCKASGGTFSSYAISWVRQAPGQGLEWMGRIIPIFGIAKYAQKFQGRVTITADRSTSTAYMELSSLRSEDTAVYYCVTRSGDYSGSSGLAFDIWGQGTMVTVSS
VL: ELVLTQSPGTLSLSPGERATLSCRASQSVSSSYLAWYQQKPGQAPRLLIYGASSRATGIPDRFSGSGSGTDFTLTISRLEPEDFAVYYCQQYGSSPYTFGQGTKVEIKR

What follows are binders tested against S protein of Korean isolate virus (MERS-CoV/Korea/KNIH/002_05_2015) (MERS-CoV, Korean isolate …) (assay: cell-based or functional assay).

Binder	IC50, PRNT, Korean isolate virus, First experiment [µg/mL]	IC50, PRNT, Korean isolate virus, Second experiment [µg/mL]
B1	0.0004	–
B2	0.0009	–
B3	–	0.0032
B4	–	0.00165
B5	–	0.00025

What follows are binders tested against S protein of Saudi isolate virus (MERS/HCoV/KSA/EMC/2012) (MERS-CoV, Saudi isolate …) (assay: cell-based or functional assay).

Binder	Neutralizing activity against Saudi virus (MERS-CoV_KSA/EMC/2012) IC50 [µg/mL]
B1	0.44
B2	0.09
B3	0.13
B4	0.06
B5	0.06

What follows are binders tested against S protein of Jordan isolate virus (MERS-HCoV/Jordan/01) (MERS-CoV, Jordan isolate …) (assay: cell-based or functional assay).

Binder	Neutralizing activity against Jordan virus (MERS-HCoV/Jordan/01) IC50 [µg/mL]
B1	0.11
B2	0.06
B3	0.11
B4	0.05
B5	0.09
